Assay results: PMC7339825 (Nature structural & molecular biology, 2020)

B1: GST-TSG101 UEV domain (residues 2-145) (domain or fragment)
chain: AVSESQLKKMVSKYKYRDLTVRETVNVITLYKDLKPVLDSYVFNDGSSRELMNLTGTIPVPYRGNTYNIPICLWLLDTYPYNPPICFVKPTSSMTIKTGKHVDANGKIYLPYLHEWKHPQSDLLGLIQVMIVVFGDEPPVFSRP
B2: binary TSG101-VPS28 ESCRT-I head subcomplex, wild type (complex)
chain 1: QSENNDIDEVIIPTAPLYKQILNLYAEENAIEDTIFYLGEALRRGVIDLDVFLKHVRLLSRKQFQLRALMQKARKTAGLSD
chain 2: MFHGIPATPGIGAPGNKPELYEEVKLYKNAREREKYDNMAELFAVVKTMQALEKAYIKDCVSPSEYTAACSRLLVQYKAAFRQVQGSEISSIDEFCRKFRLDCPLAMERIKEDRPITIKDDK

Assays:
[1] = molecular target: B2; assay: pull-down
SEC = molecular target: the molecule itself; assay: SEC

Row | Binder | binding result [1] | binding result (SEC)
1 | B1 | binds | 
2 | B2 |  | binds
